± gives the standard deviation of the averaged measurements.
Tests used:
Assay in all cases: protein stability index of tFT-peptide fusion (C-terminal peptide) (PSI (0-1 scale)); higher = more stable (slower turnover)
Saccharomyces cerevisiae [1] = conditions: temperature: 30 C
Procedure: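 MPS profiling in S. cerevisiae of the yeast C-terminome library: the last 12 aa of each annotated ORF are fused to the C-terminus of a sfGFP-mCherry timer, after a GGGS linker. Cells are FACS-sorted into 8 mCherry/sfGFP bins and deep-sequenced. PSI runs from 0 (unstable) to 1 (stable); wild type and das1Δ backgrounds, two technical replicates each.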

Saccharomyces cerevisiae [2] = system: Saccharomyces cerevisiae
Procedure: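 MPS profiling in S. cerevisiae of the tFT-X12 degron library: putative degron peptides plus stable controls, 12 aa, fused to the C-terminus of a sfGFP-mCherry timer. Cells are FACS-sorted into 8 mCherry/sfGFP bins and deep-sequenced. PSI runs from 0 (unstable) to 1 (stable). Backgrounds are wild type, das1Δ and doa10Δ at 30 °C, and wild type, das1Δ, cdc34-1 and cdc53-1 at 37 °C; 2-3 technical replicates each.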

Saccharomyces cerevisiae [3] = conditions: genetic background: wild type; temperature: 30 C
[4] = genetic background: das1 deletion
[5] = genetic background: cdc34-1, temperature: 37 C
[6] = genetic background: cdc53-1, temperature: 37 C
[7] = genetic background: das1 deletion, temperature: 30 C
[8] = genetic background: das1 deletion, temperature: 37 C
[9] = genetic background: doa10 deletion, temperature: 30 C
[10] = genetic background: wild type, temperature: 30 C
[11] = genetic background: wild type, temperature: 37 C

Row | Sequence | protein stability index (Saccharomyces cerevisiae [1]; [4]) | protein stability index (Saccharomyces cerevisiae [1]; genetic background: wild type) | protein stability index (Saccharomyces cerevisiae [2]; [5]) | protein stability index (Saccharomyces cerevisiae [2]; [6]) | protein stability index (Saccharomyces cerevisiae [2]; [7]) | protein stability index (Saccharomyces cerevisiae [2]; [8]) | protein stability index (Saccharomyces cerevisiae [2]; [9]) | protein stability index (Saccharomyces cerevisiae [2]; [10]) | protein stability index (Saccharomyces cerevisiae [2]; [11]) | protein stability index (Saccharomyces cerevisiae [3])
1 | SFNFDHFDHFDL [YIL054W C-terminal 12 aa] | 0.733 ± 0.019 | 0.743 ± 0.014 | – | – | – | – | – | – | – | –
2 | KNLADIHKIMGF [MSW1 C-terminal 12 aa] | 0.6849 ± 0.00012 | 0.709 ± 0.052 | – | – | – | – | – | – | – | –
3 | KVFDRSGIVLEK [QRI1 C-terminal 12 aa] | 0.71 ± 0.013 | 0.701 ± 0.016 | – | – | – | – | – | – | – | –
4 | SVTSKFKKYPYK [BET2 C-terminal 12 aa] | 0.7131 ± 0.0021 | 0.634 ± 0.026 | – | – | – | – | – | – | – | –
5 | TFPLVMMKTTYY [YFR009W-A C-terminal 12 aa] | 0.72 ± 0.065 | 0.697 ± 0.044 | – | – | – | – | – | – | – | –
6 | PLKDLDPNAFRG [YOX1 C-terminal 12 aa] | 0.6861 ± 0.006 | 0.692 ± 0.021 | – | – | – | – | – | – | – | –
7 | SRILQYKCIFTY [ARP8 C-terminal 12 aa] | 0.517 ± 0.023 | 0.2402 ± 0.0014 | – | – | – | – | – | – | – | –
8 | SRTPPARRQRHR [CWC22 C-terminal 12 aa] | 0.7133 ± 0.0015 | 0.671 ± 0.012 | – | – | – | – | – | – | – | –
9 | SYNDPALADFMP [NRE1 C-terminal 12 aa] | 0.7154 ± 0.007 | 0.744 ± 0.039 | – | – | – | – | – | – | – | –
10 | KVVTRSIVLWGV [YGL235W C-terminal 12 aa] | 0.632 ± 0.02 | 0.615 ± 0.016 | – | – | – | – | – | – | – | –
11 | ICAWLLFFETIH [BST1 C-terminal 12 aa] | 0.458 ± 0.018 | 0.521 ± 0.059 | – | – | – | – | – | – | – | –
12 | LKQENAYLLIRR [RPB8 C-terminal 12 aa] | 0.693 ± 0.0081 | 0.68 ± 0.01 | – | – | – | – | – | – | – | –
13 | VNHNWYSIYEST [TFC3 C-terminal 12 aa] | 0.729 ± 0.013 | 0.681 ± 0.0081 | – | – | – | – | – | – | – | –
14 | DDTLERAGRIKN [FAD1 C-terminal 12 aa] | 0.69 ± 0.023 | 0.709 ± 0.019 | – | – | – | – | – | – | – | –
15 | KSCGNNAGARIC [HO C-terminal 12 aa] | 0.7093 ± 0.00098 | 0.452 ± 0.022 | – | – | – | – | – | – | – | –
16 | NILKVEKRAVLE [PMT1 C-terminal 12 aa] | 0.684 ± 0.013 | 0.659 ± 0.02 | – | – | – | – | – | – | – | –
17 | LETLKKKKKRNN [MAK5 C-terminal 12 aa] | 0.711 ± 0.014 | 0.66348 ± 0.00034 | – | – | – | – | – | – | – | –
18 | KAKFEGKKIKFD [BUD22 C-terminal 12 aa] | 0.678 ± 0.011 | 0.7092 ± 0.0046 | – | – | – | – | – | – | – | –
19 | KALIQRKGGKLE [RPL26A C-terminal 12 aa] | 0.6757 ± 0.0023 | 0.688 ± 0.037 | – | – | – | – | – | – | – | –

Row | Sequence | protein stability index (Saccharomyces cerevisiae [1]; [4]) | protein stability index (Saccharomyces cerevisiae [1]; genetic background: wild type) | protein stability index (Saccharomyces cerevisiae [2]; [5]) | protein stability index (Saccharomyces cerevisiae [2]; [6]) | protein stability index (Saccharomyces cerevisiae [2]; [7]) | protein stability index (Saccharomyces cerevisiae [2]; [8]) | protein stability index (Saccharomyces cerevisiae [2]; [9]) | protein stability index (Saccharomyces cerevisiae [2]; [10]) | protein stability index (Saccharomyces cerevisiae [2]; [11]) | protein stability index (Saccharomyces cerevisiae [3])
20 | FSDFLDSNRITQ [LDB19 C-terminal 12 aa] | 0.72756 ± 0.00057 | 0.723 ± 0.017 | – | – | – | – | – | – | – | –
21 | SIQWIWRYSFVY [YIR020C C-terminal 12 aa] | 0.464 ± 0.0072 | 0.44 ± 0.025 | – | – | – | – | – | – | – | –
22 | GVGAISLGFSWL | – | – | 0.734 ± 0.021 | 0.763 ± 0.013 | 0.658 ± 0.019 | 0.7855 ± 0.0022 | 0.652 ± 0.03 | 0.67 ± 0.027 | 0.7491 ± 0.0035 | 0.717 ± 0.013
23 | FVVFYFFLLFGV | – | – | 0.318 ± 0.032 | 0.379 ± 0.0099 | 0.298 ± 0.034 | 0.454 ± 0.023 | 0.289 ± 0.006 | 0.264 ± 0.025 | 0.4219 ± 0.0009 | 0.3283 ± 0.00033
24 | HYTSFAVPPLVY | – | – | 0.524 ± 0.037 | 0.476 ± 0.025 | 0.366 ± 0.018 | 0.5275 ± 0.0048 | 0.3404 ± 0.0026 | 0.376 ± 0.018 | 0.487 ± 0.011 | 0.481 ± 0.024
25 | VIVIQGFVFVLG | – | – | 0.2898 ± 0.0021 | 0.426 ± 0.033 | 0.267 ± 0.033 | 0.482 ± 0.0059 | 0.234 ± 0.0035 | 0.248 ± 0.035 | 0.421 ± 0.0092 | 0.279 ± 0.073
26 | PFAGRLWVTSSF | – | – | 0.707 ± 0.052 | 0.7726 ± 0.005 | 0.671 ± 0.011 | 0.7908 ± 0.0063 | 0.685 ± 0.021 | 0.674 ± 0.022 | 0.7558 ± 0.0072 | 0.752 ± 0.035
27 | WCLLGVPVRVVV | – | – | 0.373 ± 0.014 | 0.391 ± 0.056 | 0.307 ± 0.042 | 0.462 ± 0.0047 | 0.253 ± 0.0041 | 0.288 ± 0.042 | 0.441 ± 0.0045 | 0.425 ± 0.033
28 | APPFPSLSSFAP | – | – | 0.679 ± 0.039 | 0.744 ± 0.038 | 0.7 ± 0.016 | 0.737 ± 0.03 | 0.693 ± 0.032 | 0.706 ± 0.04 | 0.718 ± 0.026 | 0.717 ± 0.018
29 | WFIFATFLILVT | – | – | 0.0797 ± 0.0056 | 0.112 ± 0.0058 | 0.136 ± 0.032 | 0.2121 ± 0.001 | 0.154 ± 0.014 | 0.121 ± 0.0082 | 0.182 ± 0.012 | 0.193 ± 0.051
30 | GIKLNVVYILLG | – | – | 0.486 ± 0.045 | 0.544 ± 0.025 | 0.377 ± 0.03 | 0.644 ± 0.017 | 0.34 ± 0.041 | 0.35 ± 0.05 | 0.536 ± 0.0097 | 0.482 ± 0.072
31 | VFTGYSAFLLLC | – | – | 0.325 ± 0.011 | 0.578 ± 0.025 | 0.487 ± 0.025 | 0.6366 ± 0.0041 | 0.0796 ± 0.016 | 0.0748 ± 0.014 | 0.0721 ± 0.0049 | 0.144 ± 0.011
32 | IVTSFVSPVYIC | – | – | 0.396 ± 0.035 | 0.5353 ± 0.003 | 0.456 ± 0.017 | 0.634 ± 0.055 | 0.0637 ± 0.023 | 0.0746 ± 0.014 | 0.0794 ± 0.021 | 0.12 ± 0.029
33 | LGVLVVCFNATY | – | – | 0.24 ± 0.0032 | 0.343 ± 0.0057 | 0.27 ± 0.014 | 0.42063 ± 0.00021 | 0.2506 ± 0.00074 | 0.264 ± 0.02 | 0.376 ± 0.017 | 0.354 ± 0.013
34 | SPGGALVFFVLV | – | – | 0.552 ± 0.038 | 0.5998 ± 0.0056 | 0.44 ± 0.023 | 0.617 ± 0.0083 | 0.391 ± 0.012 | 0.431 ± 0.027 | 0.606 ± 0.017 | 0.467 ± 0.0054
35 | FVEFCFWCFWVV | – | – | 0.481 ± 0.008 | 0.575 ± 0.032 | 0.407 ± 0.012 | 0.578 ± 0.026 | 0.351 ± 0.022 | 0.361 ± 0.026 | 0.499 ± 0.0043 | 0.426 ± 0.005
36 | SVGWGFWARFIG | – | – | 0.686 ± 0.057 | 0.756 ± 0.013 | 0.665 ± 0.014 | 0.772 ± 0.0086 | 0.215 ± 0.016 | 0.253 ± 0.017 | 0.434 ± 0.018 | 0.379 ± 0.069
37 | FLPGEAVFVYCR | – | – | 0.619 ± 0.016 | 0.616 ± 0.037 | 0.372 ± 0.026 | 0.627 ± 0.011 | 0.365 ± 0.017 | 0.391 ± 0.028 | 0.64997 ± 0.00056 | 0.4334 ± 0.0032
38 | GFISKLIIKLAA | – | – | 0.542 ± 0.0055 | 0.566 ± 0.032 | 0.43 ± 0.025 | 0.5511 ± 0.0043 | 0.269 ± 0.0091 | 0.319 ± 0.016 | 0.462 ± 0.026 | 0.435 ± 0.0059

From the supplement of paper PMC10724198
